The results in this text go back to patent publication US20100286042A1.

The experiment concerns the target FGFR2b. Briefly: cell-based or functional assay.

Regarding “basic fibroblast growth factor (FGF2) (from UniProt P09038 143-288) (ligand)”, the cell proliferation promoting activity on BaF3 cells forced to express the receptor (in the presence of heparin), relative to FGF1 (fold of the activity of FGF1) amounted to 0.001.
